# Measurements from IntAct's records for PubMed 18275819.
# Molecular target: cac1c_human CACNA1C (UniProt Q13936)
# Sequence (Q13936 whole entry): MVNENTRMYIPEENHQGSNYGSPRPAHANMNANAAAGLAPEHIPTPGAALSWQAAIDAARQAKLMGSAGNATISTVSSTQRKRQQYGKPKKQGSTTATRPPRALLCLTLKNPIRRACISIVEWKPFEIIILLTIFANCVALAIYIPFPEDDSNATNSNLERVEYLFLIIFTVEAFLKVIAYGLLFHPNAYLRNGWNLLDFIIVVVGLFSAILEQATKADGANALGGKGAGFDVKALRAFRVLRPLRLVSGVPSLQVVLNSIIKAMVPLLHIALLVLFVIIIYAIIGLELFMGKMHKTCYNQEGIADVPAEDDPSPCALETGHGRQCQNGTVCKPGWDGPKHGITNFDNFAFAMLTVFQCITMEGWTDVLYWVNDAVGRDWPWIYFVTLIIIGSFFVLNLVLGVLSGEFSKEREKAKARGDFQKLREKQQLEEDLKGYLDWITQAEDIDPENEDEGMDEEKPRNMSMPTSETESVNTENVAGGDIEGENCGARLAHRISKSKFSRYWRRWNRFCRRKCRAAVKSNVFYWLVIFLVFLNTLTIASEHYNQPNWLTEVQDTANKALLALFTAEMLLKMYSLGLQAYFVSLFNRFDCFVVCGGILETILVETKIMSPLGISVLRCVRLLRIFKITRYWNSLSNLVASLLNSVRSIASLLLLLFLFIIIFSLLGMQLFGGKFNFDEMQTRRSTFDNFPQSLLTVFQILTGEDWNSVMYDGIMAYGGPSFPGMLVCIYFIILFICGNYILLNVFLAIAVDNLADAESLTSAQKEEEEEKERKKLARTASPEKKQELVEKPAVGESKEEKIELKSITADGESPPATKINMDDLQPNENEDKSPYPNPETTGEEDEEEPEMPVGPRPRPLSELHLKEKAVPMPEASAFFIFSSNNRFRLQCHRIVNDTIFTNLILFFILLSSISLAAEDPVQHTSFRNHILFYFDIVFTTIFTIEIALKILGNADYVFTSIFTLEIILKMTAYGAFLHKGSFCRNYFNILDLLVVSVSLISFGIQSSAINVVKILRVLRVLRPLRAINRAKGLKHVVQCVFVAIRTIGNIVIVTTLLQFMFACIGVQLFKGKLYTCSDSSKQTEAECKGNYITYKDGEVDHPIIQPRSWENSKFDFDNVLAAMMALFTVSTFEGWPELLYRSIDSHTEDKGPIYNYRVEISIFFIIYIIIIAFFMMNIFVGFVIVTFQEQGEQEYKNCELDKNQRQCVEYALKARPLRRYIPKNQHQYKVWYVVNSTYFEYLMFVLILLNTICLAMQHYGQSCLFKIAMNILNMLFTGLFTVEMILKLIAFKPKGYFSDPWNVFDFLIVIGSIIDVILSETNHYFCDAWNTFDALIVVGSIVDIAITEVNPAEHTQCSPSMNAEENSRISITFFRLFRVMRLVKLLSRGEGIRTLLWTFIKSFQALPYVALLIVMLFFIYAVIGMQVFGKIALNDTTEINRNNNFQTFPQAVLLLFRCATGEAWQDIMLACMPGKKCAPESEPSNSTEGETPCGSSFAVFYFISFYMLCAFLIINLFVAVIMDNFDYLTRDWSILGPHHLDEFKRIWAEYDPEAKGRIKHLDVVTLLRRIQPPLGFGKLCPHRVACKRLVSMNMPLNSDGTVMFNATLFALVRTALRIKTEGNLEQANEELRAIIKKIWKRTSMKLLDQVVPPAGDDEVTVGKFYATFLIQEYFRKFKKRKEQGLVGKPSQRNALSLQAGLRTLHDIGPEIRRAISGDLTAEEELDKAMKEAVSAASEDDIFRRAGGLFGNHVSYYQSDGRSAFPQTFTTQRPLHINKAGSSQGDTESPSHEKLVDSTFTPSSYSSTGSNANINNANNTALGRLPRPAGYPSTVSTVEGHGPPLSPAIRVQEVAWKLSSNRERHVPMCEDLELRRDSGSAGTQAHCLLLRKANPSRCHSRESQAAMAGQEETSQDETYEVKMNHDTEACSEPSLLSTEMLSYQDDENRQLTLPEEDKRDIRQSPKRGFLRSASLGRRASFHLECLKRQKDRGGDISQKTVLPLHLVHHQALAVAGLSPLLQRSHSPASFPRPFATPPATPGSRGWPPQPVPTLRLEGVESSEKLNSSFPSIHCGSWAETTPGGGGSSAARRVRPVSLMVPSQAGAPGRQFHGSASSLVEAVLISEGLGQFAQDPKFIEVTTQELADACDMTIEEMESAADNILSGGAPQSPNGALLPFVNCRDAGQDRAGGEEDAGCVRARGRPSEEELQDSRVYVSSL
substance,measurement,value
"Voltage-dependent L-type calcium channel subunit beta-2 (Rattus norvegicus (Rat)), Q8VGC3-2 M245A",effect of a mutation on the interaction,decreasing interaction
